In publication PMC8130709, “Structure and activation mechanism of the human liver-type glutaminase GLS2” (Biochimie, 2021):
Values joined by “and” are separate entries in the source; they are usually repeats but may differ in a detail not shown here. Equal entries are not always repeated.

B1: Human GLS2 glutaminase domain (Ile154-Gly479) (domain or fragment, UniProt Q9UI32-1 154-479, looked up)
chain: IPDFEEFTGHVDRIFEDVKELTGGKVAAYIPQLAKSNPDLWGVSLCTVDGQRHSVGHTKIPFCLQSCVKPLTYAISISTLGTDYVHKFVGKEPSGLRYNKLSLNEEGIPHNPMVNAGAIVVSSLIKMDCNKAEKFDFVLQYLNKMAGNEYMGFSNATFQSEKETGDRNYAIGYYLKEKKCFPKGVDMMAALDLYFQLCSVEVTCESGSVMAATLANGGICPITGESVLSAEAVRNTLSLMHSCGMYDFSGQFAFHVGLPAKSAVSGAILLVVPNVMGMMCLSPPLDKLGNSHRGTSFCQKLVSLFNFHNYDNLRHCARKLDPRREG
notes: liver-type glutaminase GLS2, human, glutaminase (catalytic) domain, residues Ile154-Gly479, common to the LGA and GAB isoforms; Cloned into pNIC28-Bsa4; also called human GLS2 catalytic domain construct; source: E. coli BL21(DE3)-R3-pRARE2, purified (Ni-NTA, Superdex 200 gel filtration, HiTrap Q HP)
B2: Mouse GLS2 (Leu72-Val602) (enzyme, UniProt Q571F8 72-602, looked up)
chain: LGDLLFYTIAEGQERIPIHKFTTALKATGLQTSDPRLQDCMSKMQRMVQESSSGGLLDRELFQKCVSSNIVLLTQAFRKKFVIPDFEEFTGHVDRIFEDAKEPTGGKVAAYIPHLAKSNPDLWGVSLCTVDGQRHSVGHTKIPFCLQSCVKPLTYAISVSTLGTDYVHKFVGKEPSGLRYNKLSLNEEGIPHNPMVNAGAIVVSSLIKMDCNKAEKFDFVLQYLNKMAGNEFMGFSNATFQSEKETGDRNYAIGYYLKEKKCFPKGVDMMAALDLYFQLCSVEVTCESGSVMAATLANGGICPITGESVLSAEAVRNTLSLMHSCGMYDFSGQFAFHVGLPAKSAVSGAILLVVPNVMGMMCLSPPLDKLGNSQRGINFCQKLVSLFNFHNYDNLRHCARKLDPRREGGEVRNKTVVNLLFAAYSGDVSALRRFALSAMDMEQKDYDSRTALHVAAAEGHIEVVKFLIEACKVNPFVKDRWGNIPLDDAVQFNHLEVVKLLQDYHDSYLLSETQAEAAAETLSKENLESMV
notes: liver-type glutaminase GLS2, mouse, residues Leu72-Val602; also called liver-type glutaminase; wild type; source: recombinant, purified
B3: Mouse GLS2 (Leu72-Val602) Lys253Ala mutant (enzyme, UniProt Q571F8 72-602, looked up)
chain: LGDLLFYTIAEGQERIPIHKFTTALKATGLQTSDPRLQDCMSKMQRMVQESSSGGLLDRELFQKCVSSNIVLLTQAFRKKFVIPDFEEFTGHVDRIFEDAKEPTGGKVAAYIPHLAKSNPDLWGVSLCTVDGQRHSVGHTKIPFCLQSCVKPLTYAISVSTLGTDYVHKFVGKEPSGLRYNALSLNEEGIPHNPMVNAGAIVVSSLIKMDCNKAEKFDFVLQYLNKMAGNEFMGFSNATFQSEKETGDRNYAIGYYLKEKKCFPKGVDMMAALDLYFQLCSVEVTCESGSVMAATLANGGICPITGESVLSAEAVRNTLSLMHSCGMYDFSGQFAFHVGLPAKSAVSGAILLVVPNVMGMMCLSPPLDKLGNSQRGINFCQKLVSLFNFHNYDNLRHCARKLDPRREGGEVRNKTVVNLLFAAYSGDVSALRRFALSAMDMEQKDYDSRTALHVAAAEGHIEVVKFLIEACKVNPFVKDRWGNIPLDDAVQFNHLEVVKLLQDYHDSYLLSETQAEAAAETLSKENLESMV
notes: also called K253A; source: recombinant, purified; point mutant generated by PCR (QuickChange II XL)

Columns and labels:
[1] = target: the molecule itself; assay: crystal structure; ligand-free, sitting drop at 293 K, 0.1 M Tris pH 8.5, 0.2 M NaCl, 25% PEG 3350; space group H 3 2, two monomers in the asymmetric unit, tetramer generated by crystal symmetry
[2] = target: the molecule itself; assay: SEC; analytical gel filtration of serial dilutions of the protein, in the absence of phosphate; Stokes radius against protein concentration

Protein	stoichiometry N [1]	stoichiometry N [2]
B1	4	–
B2	–	2 and 4
B3	–	4
